Experimental data from patent US20140235701, “NGF APTAMER AND APPLICATION THEREOF” (RIBOMIC INC., published 2014).

What was measured:
Conditions in all cases: tags: R&D Systems; chain copies: 2
[1] = target: T1, NGF (nerve growth factor) (Homo sapiens, UniProt P01138 P01138:122-241); experiment: cell_activity; neurite; TF-1 <0.1
[2] = target: T1, NGF (nerve growth factor); experiment: cell_activity; neurite; TF-1 >1
NT-4 (neurotrophin-4) = target: T2, NT-4 (neurotrophin-4) (Homo sapiens, UniProt P34130 P34130:81-210); experiment: SPR; scarcely bound
T2 sequence: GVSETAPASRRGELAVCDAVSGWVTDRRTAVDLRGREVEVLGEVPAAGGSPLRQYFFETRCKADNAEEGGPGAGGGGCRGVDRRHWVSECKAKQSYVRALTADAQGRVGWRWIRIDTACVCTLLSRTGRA
Protocol: (§1) The binding activity of these shortened forms to NGF and NT-3 was measured by the surface plasmon resonance method. For the measurement method, BIAcore2000 manufactured by BIAcore was used and CM5 reactive with amino group was used as a sensorchip, as shown in Example 1. The protein was immobilized in the same manner as in Example 1 by using ethyl-3-carbodiimide hydrochloride and N-hydroxysuccinimide. […] After protein immobilization, blocking with ethanolamine-HCl was performed. The amount of immobilized NGF and NT-3 was 3,000-4,000 RU and 3,000-5,000 RU, respectively. The aptamer for an analyte was prepared to 0.15 μM-0.5 μM. The running buffer and regeneration solution were the same as those in Example 1. NT-3 was immobilized on FC2, and NGF on FC3, and the final sensorgram was obtained by subtracting the results of FC1.
(§2) Then, the aptamers were subjected to shortening to 40 mer in the same manner as with consensus secondary structure 1. […] NT-4 was measured in the same manner as in NT-3.
(§3) The shortened sequences were measured for the binding to NGF, NT-3, NT-4 by the surface plasmon resonance method. The measurement was performed in the same manner as in Example 13.

NT-3 (neurotrophin-3) = target: T3, NT-3 (neurotrophin-3) (Homo sapiens, UniProt P20783 P20783:139-257); experiment: SPR; scarcely bound
T3 sequence: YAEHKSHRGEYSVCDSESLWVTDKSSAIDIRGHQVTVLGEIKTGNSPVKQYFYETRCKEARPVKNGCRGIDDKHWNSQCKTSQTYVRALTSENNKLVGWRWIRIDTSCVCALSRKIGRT
Protocol: as §1, §2, §3

[3] = target: T1, NGF (nerve growth factor); experiment: SPR; more than 40N control

T1 sequence (P01138 122-241, one chain of several): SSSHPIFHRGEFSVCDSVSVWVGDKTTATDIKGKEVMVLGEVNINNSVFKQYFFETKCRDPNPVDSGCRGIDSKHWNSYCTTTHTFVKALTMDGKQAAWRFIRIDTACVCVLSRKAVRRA

B1: SEQ ID NO: 87(2) (ssRNA)
RNA: GGGUCCUGCUCAAGAGUUUCCGUCUCGUGGGCUGUUACCC
modifications: 2'-OMe G1-3,U4,C6,G14,G16,C21,G22,U23,C26,G27,U28,C32,U35,C38-40; other C/U 2'-F, G 2'-OH, dA; 5',3' idT
IC50 [1]: 0.107 nM

GGGUCCUGCUCAAGAGUUUCCGUCUCGUGGGCUGUUACCC (ssRNA, as 87(2) plus 2'-OMe G29-31) [SEQ ID NO: 87(3)]
IC50 [1]: 0.118 nM

GGGUCCUGCUCAAGAGUUUCCGUCUCGUGGGCUGUUACCC (ssRNA, as 87(2) plus 2'-OMe C9,U10,C11,G29-31) [SEQ ID NO: 87(4)]
IC50 [1]: 0.113 nM

GGGUCCUGUUGCUAAGUUUCCGUCUUAGUGACUGUUACCC (ssRNA, 2'-F C/U, dA, 2'-OH G) [SEQ ID NO: 105]
IC50 [2]: 0.444 nM | binding result (NT-4 (neurotrophin-4)): no binding | binding result (NT-3 (neurotrophin-3)): no binding

B2: SEQ ID NO: 56 (ssRNA)
RNA: GGGAGAACUUCGACCAGAAGUUGCACAUCCUGCUGUGUAGUUUCCGUCUGCAUGGUUGUUAUGUGCGCAUACAUGGAUCCUC
modifications: 2'-F C/U, dA, 2'-OH G
binding result [3]: binds

GGGUCCUGCUGCGUAGUUUCCGUCUGCGUGGUUGUUACCC (ssRNA, 2'-F C/U, dA, 2'-OH G) [SEQ ID NO: 103]
IC50 [2]: 0.766 nM | binding result (NT-4 (neurotrophin-4)): no binding | binding result (NT-3 (neurotrophin-3)): no binding

GGGUCCUGCUGUGUAGUUUCCGUCUGCAUGGUUGUUACCC (ssRNA, 2'-F C/U, dA, 2'-OH G) [SEQ ID NO: 113]
IC50 [2]: 0.96 nM | binding result (NT-4 (neurotrophin-4)): no binding | binding result (NT-3 (neurotrophin-3)): no binding

GGGUCCUGCCGCGUAGUUUCCGUCUGCGUGGCUGUUACCC (ssRNA, 2'-F C/U, dA, 2'-OH G) [SEQ ID NO: 110]
IC50 [2]: 0.999 nM | binding result (NT-4 (neurotrophin-4)): no binding | binding result (NT-3 (neurotrophin-3)): no binding

GGGUCCUGCUGCGUAGUUUCCUUCUGCGUGGCUGUUACCC (ssRNA, 2'-F C/U, dA, 2'-OH G) [SEQ ID NO: 109]
IC50 [2]: 0.687 nM | binding result (NT-4 (neurotrophin-4)): no binding | binding result (NT-3 (neurotrophin-3)): no binding

GGGUCCUGCUGCGUAGUUUCCGUCUGCGUAGCUGUUACCC (ssRNA, 2'-F C/U, dA, 2'-OH G) [SEQ ID NO: 106]
IC50 [2]: 0.77 nM | binding result (NT-4 (neurotrophin-4)): no binding | binding result (NT-3 (neurotrophin-3)): no binding

GGGUCCUGUUGCGUAGUUUCCGUCUGCGUGACUGUUACCC (ssRNA, 2'-F C/U, dA, 2'-OH G) [SEQ ID NO: 108]
IC50 [2]: 0.403 nM | binding result (NT-4 (neurotrophin-4)): no binding | binding result (NT-3 (neurotrophin-3)): no binding

GGGUCCUGCUGCGAAGUUUCCGUCUUCGUGGCUGUUACCC (ssRNA, 2'-F C/U, dA, 2'-OH G) [SEQ ID NO: 107]
IC50 [2]: 0.967 nM | binding result (NT-4 (neurotrophin-4)): no binding | binding result (NT-3 (neurotrophin-3)): no binding

B3: SEQ ID NO: 49 (ssRNA)
RNA: GGGAGAACUUCGACCAGAAGUUUGCACAUCCUGCUGCGUAGUUUCCGUCUACGUGGCUGUUAUGUGCGCAUACAUGGAUCCUC
modifications: 2'-F C/U, dA, 2'-OH G
binding result [3]: binds

B4: SEQ ID NO: 60 (ssRNA)
RNA: GGGAGAACUUCGACCAGAAGUUGGCACAUCCUGCUGCAGAGUUUCCGUCUCGGUGGCUGUUAUGUGCGCAUACAUGGAUCCUC
modifications: 2'-F C/U, dA, 2'-OH G
binding result [3]: binds

B5: SEQ ID NO: 59 (ssRNA)
RNA: GGGAGAACUUCGACCAGAAGUUUGCACAUCCUGCUGCGUAGUUUCCUUCUGCGUGGUUGUUAUGUGCGCAUACAUGGAUCCUC
modifications: 2'-F C/U, dA, 2'-OH G
binding result [3]: binds

B6: SEQ ID NO: 50 (ssRNA)
RNA: GGGAGAACUUCGACCAGAAGCUGGCACAUCCUGUUGCGUAGUUUCCGUCUACGUGACUGUUAUGUGCGCAUACAUGGAUCCUC
modifications: 2'-F C/U, dA, 2'-OH G
binding result [3]: binds

B7: SEQ ID NO: 57 (ssRNA)
RNA: GGGAGAACUUCGACCAGAAGUAGGCACGUCCUGCUGCAUAGUUUCCGUCUGUGUGGCUGUUAUGUGCGCAUACAUGGAUCCUC
modifications: 2'-F C/U, dA, 2'-OH G
binding result [3]: binds

B8: SEQ ID NO: 61 (ssRNA)
RNA: GGGAGAACUUCGACCAGAAGUUAGCACAUCCUGCUGCGUAGUUUCCGUCUUCGCGGUUGUUAUGUGCGCAUACAUGGAUCCUC
modifications: 2'-F C/U, dA, 2'-OH G
binding result [3]: binds

B9: SEQ ID NO: 51 (ssRNA)
RNA: GGGAGAACUUCGACCAGAAGUUGGCACACCCUGCUACGGAGUUUCCGUCUCGGUGGCUGUUAUGUGCGCAUACAUGGAUCCUC
modifications: 2'-F C/U, dA, 2'-OH G
binding result [3]: binds

B10: SEQ ID NO: 58 (ssRNA)
RNA: GGGAGAACUUCGACCAGAAGUUGACACAUCCUGCUGCGUAGUUUCCGUCUGCGUGGUUGUUAUGUGCGCAUACAUGGAUCCUC
modifications: 2'-F C/U, dA, 2'-OH G
binding result [3]: binds

B11: SEQ ID NO: 52 (ssRNA)
RNA: GGGAGAACUUCGACCAGAAGUUGGCACAUCCUGCUGCAUAGUUUCCGUCUUUGUGGCUGUUAUGUGCGCAUACAUGGAUCCUC
modifications: 2'-F C/U, dA, 2'-OH G
binding result [3]: binds

B12: SEQ ID NO: 55 (ssRNA)
RNA: GGGAGAACUUCGACCAGAAGUUGGCACAUCCUGUUGCGUAGUUUCCGUCUGCGUGGCUGUUAUGUGCGCAUACAUGGAUCCUC
modifications: 2'-F C/U, dA, 2'-OH G
binding result [3]: binds

B13: SEQ ID NO: 54 (ssRNA)
RNA: GGGAGAACUUCGACCAGAAGUUGGCACAUCCUGAUGCGUAGUUUCCGUCUGCGUGUCUGUUAUGUGCGCAUACAUGGAUCCUC
modifications: 2'-F C/U, dA, 2'-OH G
binding result [3]: binds

B14: SEQ ID NO: 53 (ssRNA)
RNA: GGGAGAACUUCGACCAGAAGUUUGCACAUCCUGCUGCGCAGUUUCCGUCUACGUGGCUGUUAUGUGCGCAUACAUGGAUCCUC
modifications: 2'-F C/U, dA, 2'-OH G
binding result [3]: binds

GGGUCCUGUGGAAGAGUUUCCGUCUCGUCCACUGUUACCC (ssRNA, 2'-F C/U, dA, 2'-OH G) [SEQ ID NO: 89]
IC50 [2]: 0.959 nM

GGGUCCUGUGGAAGAGUUUCCGUCUCGUCCACUGUUACCC (ssRNA, 2'-OMe G1-3,C38-40; other C/U 2'-F, G 2'-OH, dA; 5',3' idT) [SEQ ID NO: 89(1)]
IC50 [1]: 0.246 nM

GGGUCCUGUUCAAGAGUUUCCGUCUCGUGAACUGUUACCC (ssRNA, 2'-OMe G1-3,C38-40; other C/U 2'-F, G 2'-OH, dA; 5',3' idT) [SEQ ID NO: 88(2)]
IC50 [1]: 0.241 nM

B15: SEQ ID NO: 88(3) (ssRNA)
RNA: GGGUCCUGUUCAAGAGUUUCCGUCUCGUGAACUGUUACCC
modifications: 2'-OMe G1-3,U4,C6,G14,G16,C21,G22,U23,C26,G27,U28,C32,U35,C38-40; other C/U 2'-F, G 2'-OH, dA; 5',3' idT
IC50 [1]: 0.106 nM

GGGUCCUGUGGAAGAGUUUCCGUCUCGUCCACUGUUACCC (ssRNA, as 89(2) plus 2'-OMe G10,G11) [SEQ ID NO: 89(3)]
IC50 [1]: 0.122 nM

B16: SEQ ID NO: 89(2) (ssRNA)
RNA: GGGUCCUGUGGAAGAGUUUCCGUCUCGUCCACUGUUACCC
modifications: 2'-OMe G1-3,C6,G14,G16,C21,G22,U23,C26,G27,U28,C32,U35,C38-40; other C/U 2'-F, G 2'-OH, dA; 5',3' idT
IC50 [1]: 0.103 nM

GGGUCCUGAGCAAGAGUUUCCGUCUCAUGCUCUGUUACCC (ssRNA, 2'-F C/U, dA, 2'-OH G) [SEQ ID NO: 102]
IC50 [2]: 0.908 nM

GGGUCCUGACGUAUAGUUUCCGUCUGUAUGUCUGUUACCC (ssRNA, 2'-F C/U, dA, 2'-OH G) [SEQ ID NO: 101]
IC50 [2]: 0.994 nM

GGGUCCUGAUGUCAAGUUUCCGUCUUGAUGUCUGUUACCC (ssRNA, 2'-F C/U, dA, 2'-OH G) [SEQ ID NO: 104]
IC50 [2]: 0.682 nM | binding result (NT-4 (neurotrophin-4)): no binding | binding result (NT-3 (neurotrophin-3)): no binding
